Experimental data published in US20190271705A1 (published 2019).
Changes are numbered by the printed parent chain. In names and notes the source's numbering stands.

B1: S10A (designed binder)
chain: MKIEEHHHHHHSSGRENLYFQGGAAQPAAPVDSIQAEEWYFGKLGRKDAERQLLSFGNPRGTFLIRESETTKGAYALSIRDWDDMKGDHVKHYKIRKLDNGGYYITTRAQFETLQQLVQHYSERAAGLSSRLVVPSHKGAAA
B2: K2E T8V S10A K15I (designed binder)
chain: B1 chain with K47E, T71V, K94I
B3: S10A K15L (designed binder)
chain: B1 chain with K94L
B4: S10V (designed binder)
chain: B1 chain with A76V
B5: S10V K15L (designed binder)
chain: B1 chain with A76V, K94L
B6: T8V S10A K15L (designed binder)
chain: B1 chain with T71V, K94L
B7: T8V K15L (designed binder)
chain: B1 chain with T71V, A76S, K94L
B8: T7S S10A K15L (designed binder)
chain: B1 chain with T70S, K94L
B9: T8I S10A K15L (designed binder)
chain: B1 chain with T71I, K94L
B10: none (wild-type) (other)
chain: B1 chain with A76S
B11: T8V S10A K15I (designed binder)
chain: B1 chain with T71V, K94I
B12: ΔT8 S10A K15L (designed binder)
chain: B1 chain with A76S
B13: K15L (designed binder)
chain: B1 chain with A76S, K94L
B14: T8V (designed binder)
chain: B1 chain with T71V, A76S

Experiments:
Test in all cases: fluorescence polarization
VEGFR1-pY1213mod = biological target: VEGFR1-pY1213mod
EGFR-pY1110 = biological target: EGFR-pY1110
TRAF7-pY275mod = biological target: TRAF7-pY275mod
SIG11-pY668 = biological target: SIG11-pY668
EGFR-pY978 = biological target: EGFR-pY978
MidT-pY324 = biological target: MidT-pY324
RSKL-pY423 = biological target: RSKL-pY423

| Binder | Kd (VEGFR1-pY1213mod) [nM] | Kd (EGFR-pY1110) [nM] | Kd (TRAF7-pY275mod) [nM] | Kd (SIG11-pY668) [nM] | Kd (EGFR-pY978) [nM] | Kd (MidT-pY324) [nM] | Kd (RSKL-pY423) [nM] |
| --- | --- | --- | --- | --- | --- | --- | --- |
| B1 | 5800 | 13000 | 1300 | 48 | 1100 | 120 | 2500 |
| B2 | 580 | 3800 | 990 | 900 | 170 | 280 | 2500 |
| B3 | 400 | 2000 | 480 | 120 | 130 | 110 | 1600 |
| B4 | 9000 | 34000 | 4500 | 660 | 5500 | 360 | 6500 |
| B5 | 1600 | 4400 | 2100 | 320 | 430 | 94 | 1500 |
| B6 | 58 | 340 | 60 | 26 | 8.5 | 11 | 77 |
| B7 | 440 | 1700 | 450 | 150 | 120 | 140 | 530 |
| B8 | 640 | 1600 | 300 | 71 | 210 | 49 | 1500 |
| B9 | 180 | 700 | 330 | 120 | 32 | 43 | 190 |
| B10 |  | 26000 | 6000 | 430 |  | 490 | 12000 |
| B11 | 410 | 1400 | 450 | 190 | 130 | 98 | 880 |
| B12 |  | 15000 | 2700 | 550 |  | 260 | 6100 |
| B13 | 2800 | 5800 | 2200 | 450 | 670 | 420 | 3300 |
| B14 | 24000 | 41000 | 5800 | 1200 | 2400 | 370 | 14000 |
